Assay results reported in the supplement of paper PMC11246515.
± gives the standard deviation of the averaged measurements.

Test: total protein half-life in vivo (active degradation + dilution); higher = more stable protein
[1] = E. coli NCM3722 delta-clpP delta-lon delta-hslV, growth: N-lim chemostat, doubling time 6 h
[2] = wild type E. coli NCM3722, growth: C-lim chemostat, doubling time 6 h
[3] = wild type E. coli NCM3722, growth: C-lim chemostat, doubling time 12 h
[4] = E. coli NCM3722 delta-clpP, growth: N-lim chemostat, doubling time 6 h
[5] = wild type E. coli NCM3722, growth: C-lim chemostat, doubling time 3 h
[6] = wild type E. coli NCM3722, growth: N-lim chemostat, doubling time 6 h
[7] = E. coli NCM3722 delta-hslV, growth: N-lim chemostat, doubling time 6 h
[8] = E. coli NCM3722 delta-lon, growth: N-lim chemostat, doubling time 6 h
[9] = E. coli NCM3722 delta-smpB, growth: N-lim chemostat, doubling time 6 h
[10] = wild type E. coli NCM3722, growth: N-lim chemostat, doubling time 12 h
[11] = wild type E. coli NCM3722, growth: P-lim chemostat, doubling time 6 h
[12] = wild type E. coli NCM3722, growth: P-lim chemostat, doubling time 12 h

| Sequence | total protein half-life in vivo [1] [h] | total protein half-life in vivo [2] [h] | total protein half-life in vivo [3] [h] | total protein half-life in vivo [4] [h] | total protein half-life in vivo [5] [h] | total protein half-life in vivo [6] [h] | total protein half-life in vivo [7] [h] | total protein half-life in vivo [8] [h] | total protein half-life in vivo [9] [h] | total protein half-life in vivo [10] [h] | total protein half-life in vivo [11] [h] | total protein half-life in vivo [12] [h] |
| --- | --- | --- | --- | --- | --- | --- | --- | --- | --- | --- | --- | --- |
| MISAFDIFKIGIGPSSSHTVGPMNAGKSFIDRLESSGLLTATSHIVVDLYGSLSLTGKGHATDVAIIMGLAGNSPQDVVIDEIPAFIELVTRSGRLPVASGAHIVDFPVAKNIIFHPEMLPRHENGMRITAWKGQEELLSKTYYSVGGGFIVEEEHFGLSHDVETSVPYDFHSAGELLKMCDYNGLSISGLMMHNELALRSKAEIDAGFARIWQVMHDGIERGMNTEGVLPGPLNVPRRAVALRRQLVSSDNISNDPMNVIDWINMYALAVSEENAAGGRVVTAPTNGACGIIPAVLAYYDKFRRPVNERSIARYFLAAGAIGALYKMNASISGAEVGCQGEIGVACSMAAAGLTELLGGSPAQVCNAAEIAMEHNLGLTCDPVAGQVQIPCIERNAINAVKAVNAARMAMRRTSAPRVSLDKVIETMYETGKDMNDKYRETSRGGLAIKVVCG | 4.67 | 2.13 | 2.34 | – | – | – | – | – | – | – | – | – |
| MISTVALFWALCVVCIVNMARYFSSLRALLVVLRNCDPLLYQYVDGGGFFTSHGQPNKQVRLVWYIYAQRYRDHHDDEFIRRCERVRRQFILTSALCGLVVVSLIALMIWH [P0A8S5] | 0.94 | > 8 | – | 0.778 | 0.797 | – | – | – | – | – | – | – |
| MITHNFNTLDLLTSPVWIVSPFEEQLIYANSAAKLLMQDLTFSQLRTGPYSVSSQKELPKYLSDLQNQHDIIEILTVQRKEEETALSCRLVLRKLTETEPVIIFEGIEAPATLGLKASRSANYQRKKQGFYARFFLTNSAPMLLIDPSRDGQIVDANLAALNFYGYNHETMCQKHTWEINMLGRRVMPIMHEISHLPGGHKPLNFVHKLADGSTRHVQTYAGPIEIYGDKLMLCIVHDITEQKRLEEQLEHAAHHDAMTGLLNRRQFYHITEPGQMQHLAIAQDYSLLLIDTDRFKHINDLYGHSKGDEVLCALARTLESCARKGDLVFRWGGEEFVLLLPRTPLDTALSLAETIRVSVAKVSISGLPRFTVSIGVAHHEGNESIDELFKRVDDALYRAKNDGRNRVLAA | 6.16 | 1.87 ± 0.062 | 1.42 ± 0.21 | 1.51 | 0.79 ± 0.18 | 1.31 | – | – | – | – | – | – |
| MITNYEATVVTTDDIVHEVNLEGKRIGYVIKTENKETPFTVVDIDGPSGNVKTLDEGVKKMCLVHIGKNLPAEKKAEFLATLIAMKLKGEI | – | 5.13 | 10.3 | – | – | – | – | – | – | – | – | – |
| MITRDFLMNADCKTAFGAIEESLLWSAEQRAASLAATLACRPDEGPVWIFGYGSLMWNPALEFTESCTGTLVGWHRAFCLRLTAGRGTAHQPGRMLALKEGGRTTGVAYRLPEETLEQELTLLWKREMITGCYLPTWCQLDLDDGRTVNAIVFIMDPRHPEYESDTRAQVIAPLIAAASGPLGTNAQYLFSLEQELIKLGMQDDGLNDLLVSVKKLLAENFPDGVLRPGFA | 5.67 ± 0.14 | – | – | – | – | – | – | – | – | – | – | – |
| MITTRTARQCGQADYGWLQARYTFSFGHYFDPKLLGYASLRVLNQEVLAPGAAFQPRTYPKVDILNVILDGEAEYRDSEGNHVQASAGEALLLSTQPGVSYSEHNLSKDKPLTRMQLWLDACPQRENPLIQKLALNMGKQQLIASPEGAMGSLQLRQQVWLHHIVLDKGESANFQLHGPRAYLQSIHGKFHALTHHEEKAALTCGDGAFIRDEANITLVADSPLRALLIDLPV | 5.48 ± 0.071 | 4.71 | 9.966 ± 0.01 | 4.42 ± 0.18 | – | 6.13 | 5.31 ± 0.28 | 4.33 ± 0.52 | 4.37 ± 0.26 | 8.48 ± 1.3 | 4.66 ± 0.36 | 9.05 ± 0.27 |
| MITVALIDDHLIVRSGFAQLLGLEPDLQVVAEFGSGREALAGLPGRGVQVCICDISMPDISGLELLSQLPKGMATIMLSVHDSPALVEQALNAGARGFLSKRCSPDELIAAVHTVATGGCYLTPDIAIKLASGRQDPLTKRERQVAEKLAQGMAVKEIAAELGLSPKTVHVHRANLMEKLGVSNDVELARRMFDGW [P0AGA6] | 5.29 ± 0.12 | 4.26 ± 1.2 | 8.86 ± 0.39 | 4.19 ± 0.075 | 2.7 ± 0.14 | 4.01 ± 0.17 | – | 4.25 ± 1.2 | 3.84 ± 0.34 | 6.351 ± 0.022 | 4.35 ± 0.56 | 7.3 ± 0.44 |
| MIVISRHVAIPDGELEITAIRAQGAGGQHVNKTSTAIHLRFDIRASSLPEYYKERLLAASHHLISSDGVIVIKAQEYRSQELNREAALARLVAMIKELTTEKKARRPTRPTRASKERRLASKAQKSSVKAMRGKVRSGRE | – | 4.63 | 6.61 | 3.47 | 2.4 | 4.19 | 4.86 | 5 ± 0.37 | 4.58 | 8.89 | 4.91 | – |
| MIVKRPVSASLARAFFYIVLLSILSTGIALLTLASSLRDAEAINIAGSLRMQSYRLGYDLQSGSPQLNAHRQLFQQALHSPVLTNLNVWYVPEAVKTRYAHLNANWLEMNNRLSKGDLPWYQANINNYVNQIDLFVLALQHYAERKMLLVVAISLAGGIGIFTLVFFTLRRIRHQVVAPLNQLVTASQRIEHGQFDSPPLDTNLPNELGLLAKTFNQMSSELHKLYRSLEASVEEKTRDLHEAKRRLEVLYQCSQALNTSQIDVHCFRHILQIVRDNEAAEYLELNVGENWRISEGQPNPELPMQILPVTMQETVYGELHWQNSHVSSSEPLLNSVSSMLGRGLYFNQAQKHFQQLLLMEERATIARELHDSLAQVLSYLRIQLTLLKRSIPEDNATAQSIMADFSQALNDAYRQLRELLTTFRLTLQQADLPSALREMLDTLQNQTSAKLTLDCRLPTLALDAQMQVHLLQIIREAVLNAMKHANASEIAVSCVTAPDGNHTVYIRDNGIGIGEPKEPEGHYGLNIMRERAERLGGTLTFSQPSGGGTLVSISFRSAEGEESQLM | 7.015 ± 0.027 | 6.73 ± 0.72 | 12.6 ± 0.26 | 6.09 ± 0.081 | – | 6.0563 ± 0.0037 | 6.03 ± 0.085 | 6.24 ± 0.29 | 5.91 ± 0.37 | – | 5.97 ± 0.28 | 11.7 ± 2.1 |
| MIWIMLATLAVVFVVGFRVLTSGARKAIRRLSDRLNIDVVPVESMVDQMGKSAGDEFLRYLHRPDESHLQNAAQVLLIWQIVIVDGSEQNLLQWHRILQKARLAAPITDAQVRLALGFLRETEPEMQDINAFQMRYNAFFQPAEGVHWLH [P0ADL3] | 5.96 ± 1.4 | 5.07 ± 0.086 | 10.9 ± 2.9 | 5.141 ± 0.016 | 2.98 ± 0.21 | 4.71 | 4.75 | – | 4.7 ± 0.11 | 10.8 | 4.65 ± 0.24 | 9.29 ± 1.7 |
